Measured values as given in US20260241049A1, “Radiopharmaceutical Compositions Targeting Glypican-3 and Uses Thereof” (RayzeBio, Inc., priority 2023, published 2026).
Starred links: 1 amine or outer side, 2 acyl side, 3 side chain; linkers in the order of their positions; H or OH if unused. Positions of bridges follow the written chain, without caps; N, C: chain ends. Non-standard residues stand in square brackets, D forms with d. Residues, ends and D or L forms follow the SMILES beside them. Primed or numbered codes have the meaning given here. *: point of attachment. YaeCOpipzaa = 2-amino-3-(4-(2-(4-(carboxymethyl)piperazine-1-carboxamido)ethoxy)phenyl)propanoic acid, O=C(NCCOc1ccc(C[C@H](N[*:1])C(=O)[*:2])cc1)N1CCN(CC(=O)[*:3])CC1; DOTA‑Lu = DOTA-lutetium(175) amide on the side-chain amine, O=C([O-])CN1CCN(CC(=O)[O-])CCN(CC(=O)*)CCN(CC(=O)[O-])CC1.[175Lu+3]; Thr(Me) = O-methyl threonine, (3R)-2-amino-3-methoxybutanoic acid, CO[C@H](C)[C@H](N[*:1])C(=O)[*:2]; F4aao = 4-(carboxymethoxy)-L-phenylalanine, O=C([C@H](Cc1ccc(OCC(=O)[*:3])cc1)N[*:1])[*:2]; DOTA‑Lu″ = DOTA chelate of lutetium (175Lu), attached as an amide to the side-chain amine; MeHseMe = N-methyl-O-methyl-L-homoserine, COCC[C@@H](C(=O)[*:2])N(C)[*:1]; Phe(4-(1-Me-pyrazol-4-yl)) = Cn1cc(-c2ccc(C[C@H](N)C(=O)O)cc2)cn1; TMe = O-methyl-L-threonine, CO[C@H](C)[C@H](N[*:1])C(=O)[*:2]; NMeAla(isoquinolin-7-yl) = CN[C@@H](Cc1ccc2ccncc2c1)C(=O)O; Phe(4-CH2COOH) = N[C@@H](Cc1ccc(CC(=O)O)cc1)C(=O)O; 3Pal(6-Ph) = N[C@@H](Cc1ccc(-c2ccccc2)nc1)C(=O)O; Phe(4-COOH) = N[C@@H](Cc1ccc(C(=O)O)cc1)C(=O)O; NMe2Nal = CN[C@@H](Cc1ccc2ccccc2c1)C(=O)O; NMeI = CC[C@H](C)[C@H](NC)C(=O)O; NMeQ = CN[C@@H](CCC(N)=O)C(=O)O; NMeK = CN[C@@H](CCCCN)C(=O)O; NMeC = CN[C@@H](CS)C(=O)O; NMeA = CN[C@@H](C)C(=O)O

Target: T1, Human Glypican3-Fc (ACRO Biosystems, GP3-H5258) (human, UniProt P51654 25-559)
T1 construct: Bought fusion protein, captured in Methods B-2, B-3 and B-4; Catalogue number is printed only in Method B-2; not shown: Fc part of the bought fusion
Test: SPR (Biacore T200), Method B-2: human Glypican3-Fc captured by anti-human Fc on CM3 chip, peptide as analyte
Settings: not given
Procedure: A CM3 sensor chip (Cytiva) was inserted into a Biacore T200 (Cytiva), primed three times with a running buffer: HBS-P-+, pH 7.4 (Cytiva), and equilibrated at a flow rate of 30 μL/min. Using the Anti-Fc Capture Kit (Cytiva), 50 LL each of 60 mM EDC solution (Cytiva) and 650 mM NHS solution (Cytiva) were mixed, and then reacted at a flow rate of 10 μL/min for 420 seconds, 150 μL of […] Anti-human IgG (Fc) Antibody solution was prepared by diluting with 10 mM acetic acid solution (pH 5.0), reacted at a flow rate of 10 μL/min for 420 seconds, and immobilized on a CM3 sensor chip. After immobilization, 1.0 M ethanolamine aqueous solution (Cytiva) was allowed to react for 420 seconds at a flow rate of 10 μL/min for capping. Human Glypican3-Fc (ACRO Biosystems, GP3-H5258) was allowed to react for 60 seconds at a flow rate of 10 μL/min. After capturing human Glypican3-Fc, a peptide solution prepared to 10 mM in DMSO solution was diluted with a running buffer to a final concentration of 10 μM. […] Using the above samples, peptide kinetics for Glypican3 was obtained by SPR measurement. Kinetics evaluation of Glypican3 was performed by SPR measurements at a flow rate of 10 μL/min. setting the association time to 120 seconds and the disassociation time to 600 seconds.
(§1) The obtained data by Method B-1, Method B-2, Method B-3 and Method B-4 were analyzed by follow. Single Cycle Kinetics was used as the kinetics evaluation model, and curve fitting was performed using Biacore T200 Evaluation Software Version 3.0 (Cytiva).

Row | Molecule | Kd
1 | KQDQFTIFFGXC (not fully specified; MeK(DOTA-Lu)-MeQ-D-MeQ-F4COO-TMe-I-F4aao-MeNal27N-G-3Py6Ph-MeC-NH2; thioether ring from N-terminal acetyl to MeC12) [Lu-C-35] | 2.03 nM
2 | {CH2CO}-[NMeQ][NMeQ]D[NMeK](DOTA‑Lu″)[Phe(4-COOH)]II[Phe(4-CH2COOH)][NMe2Nal]G[Phe(4-(1-Me-pyrazol-4-yl))][NMeC]-NH2 (thioether N-12) [Lu-C-26] | 2.52 nM
3 | Ac-[NMeK](DOTA‑Lu)[NMeI]D[NMeQ][Phe(4-COOH)][TMe]I[F4aao][NMeAla(isoquinolin-7-yl)]G[3Pal(6-Ph)][NMeC][dE]-NH2 (bridge N-12; not fully specified (bridges); printed as MeK(DOTA-Lu)-MeI-D-MeQ-F4COO-TMe-I-F4aao-MeNal27N-G-3Py6Ph-MeC-de-NH2) [Lu-C-31] | 7.05 nM

Further lines, results first:

Row | Kd | Molecule
4 | 1.5 nM | {CH2CO}-[NMeA][NMeQ]D[NMeQ][Phe(4-COOH)]II[Phe(4-COOH)][NMe2Nal]G[3Pal(6-Ph)][NMeC]-NH2 (thioether N-12; SMILES CC[C@H](C)[C@@H]1NC(=O)[C@H](Cc2ccc(C(=O)O)cc2)NC(=O)[C@H](CCC(N)=O)N(C)C(=O)[C@H](CC(=O)O)NC(=O)[C@H](CCC(N)=O)N(C)C(=O)[C@H](C)N(C)C(=O)CSC[C@@H](C(N)=O)N(C)C(=O)[C@H](Cc2ccc(-c3ccccc3)nc2)NC(=O)CNC(=O)[C@H](Cc2ccc3ccccc3c2)N(C)C(=O)[C@H](Cc2ccc(C(=O)O)cc2)NC(=O)[C@H]([C@@H](C)CC)NC1=O) [Macrocyclic peptide of Example 2-23 (SEQ ID No. 43)]
5 | 0.67 nM | {CH2CO}-K[NMeI]D[NMeQ][Phe(4-COOH)]II[F4aao][NMeAla(isoquinolin-7-yl)]G[3Pal(6-Ph)][NMeC]-NH2 (thioether N-12; not fully specified (residue 1); also: DOTA-Lu: cold Lu-175 complex) [Lu-C-42]
6 | 0.5 nM | {CH2CO}-[NMeQ][MeHseMe]D[NMeQ][Phe(4-COOH)][Thr(Me)]I[YaeCOpipzaa][NMe2Nal]G[3Pal(6-Ph)][NMeC]-NH2 (thioether N-12; SMILES CC[C@H](C)[C@@H]1NC(=O)[C@H]([C@@H](C)OC)NC(=O)[C@H](Cc2ccc(C(=O)O)cc2)NC(=O)[C@H](CCC(N)=O)N(C)C(=O)[C@H](CC(=O)O)NC(=O)[C@H](CCOC)N(C)C(=O)[C@H](CCC(N)=O)N(C)C(=O)CSC[C@@H](C(N)=O)N(C)C(=O)[C@H](Cc2ccc(-c3ccccc3)nc2)NC(=O)CNC(=O)[C@H](Cc2ccc3ccccc3c2)N(C)C(=O)[C@H](Cc2ccc(OCCNC(=O)N3CCN(CC(=O)O)CC3)cc2)NC1=O) [Macrocyclic peptide of Example 2-19 (SEQ ID No. 37)]

Target: Human Glypican3-Fc (Homo sapiens, UniProt P51654)
Test: SPR binding to Glypican-3, Method B-2 (Glypican3-Fc captured by anti-human IgG (Fc) antibody on CM3 chip)
Settings: SPR method B-2
Procedure: A CM3 sensor chip (Cytiva) was inserted into a Biacore T200 (Cytiva), primed three times with a running buffer: HBS-P-+, pH 7.4 (Cytiva), and equilibrated at a flow rate of 30 μL/min. Using the Anti-Fc Capture Kit (Cytiva), 50 LL each of 60 mM EDC solution (Cytiva) and 650 mM NHS solution (Cytiva) were mixed, and then reacted at a flow rate of 10 μL/min for 420 seconds, 150 μL of […] Anti-human IgG (Fc) Antibody solution was prepared by diluting with 10 mM acetic acid solution (pH 5.0), reacted at a flow rate of 10 μL/min for 420 seconds, and immobilized on a CM3 sensor chip. After immobilization, 1.0 M ethanolamine aqueous solution (Cytiva) was allowed to react for 420 seconds at a flow rate of 10 μL/min for capping. Human Glypican3-Fc (ACRO Biosystems, GP3-H5258) was allowed to react for 60 seconds at a flow rate of 10 μL/min. After capturing human Glypican3-Fc, a peptide solution prepared to 10 mM in DMSO solution was diluted with a running buffer to a final concentration of 10 μM. After that, 5 serial dilution series (100 nM, 50 nM, 25 nM, 10 nM, 5 nM) of peptide solutions were prepared. Using the above samples, peptide kinetics for Glypican3 was obtained by SPR measurement. Kinetics evaluation of Glypican3 was performed by SPR measurements at a flow rate of 10 μL/min. setting the association time to 120 seconds and the disassociation time to 600 seconds.
as §1, with “(Cytiva). The obtained sensorgram was subjected to curve fitting by the method of least squares and obtained KD values of the macrocyclic peptides in this disclosure for Glypican 3 protein are shown in Table 18.” for “(Cytiva).”

Row | Kd | Molecule
7 | 1.5 nM | CC[C@H](C)[C@@H]1NC(=O)[C@H](Cc2ccc(C(=O)O)cc2)NC(=O)[C@H](CCC(N)=O)N(C)C(=O)[C@H](CC(=O)O)NC(=O)[C@H](CCC(N)=O)N(C)C(=O)[C@H](C)N(C)C(=O)CSC[C@@H](C(N)=O)N(C)C(=O)[C@H](Cc2ccc(-c3ccccc3)nc2)NC(=O)CNC(=O)[C@H](Cc2ccc3ccccc3c2)N(C)C(=O)[C@H](Cc2ccc(C(=O)O)cc2)NC(=O)[C@H]([C@@H](C)CC)NC1=O [Conjugate 2-23] ({CH2CO}-[NMeA][NMeQ]D[NMeQ][Phe(4-COOH)]II[Phe(4-COOH)][NMe2Nal]G[3Pal(6-Ph)][NMeC]-NH2; thioether N-12)
